Literature values as cited in US20010028895A1, “Methods of treating alzheimer's disease” (priority 2000, published 2001).

Tests used:
[1] = among the eight 22-mer domains of apo A-I
[2] = among the eight 22-mer domains of apo A-I; remark: listed apart in the source
[3] = among the eight 22-mer domains of apo A-I; remark: listed apart in the source
[4] = among the eight 22-mer domains of apo A-I; remark: listed apart in the source

Substance	partition coefficient into POPC liposomes [1]	exclusion pressure for penetration into egg yolk phosphatidylcholine monolayer [2]	reduction in the enthalpy of the gel-to-liquid crystalline phase transition of DMPC MLVs [3]	clarifying multilamellar vesicles of DMPC [4]
44-65: synthesized N-terminal 22-mer amphipathic domain of human apo A-I, residues 44-65 (LKLLDNWDSVTSTFSKLREQLG; UniProt P02647 68-89, looked up, fragment)	highest partition coefficient	highest exclusion pressure	greatest reduction	effective
220-241: synthesized C-terminal 22-mer amphipathic domain of human apo A-I, residues 220-241 (PVLESFKVSFLSALEEYTKKLN; UniProt P02647 244-265, looked up, fragment)	highest partition coefficient	highest exclusion pressure	greatest reduction	effective
